Reference: patent publication US20050232920A1

Key:
[1] = target: dog factor D (in dog serum) (dog); assay: cell-based or functional assay; conditions: scale: times less effective than on human factor D
[2] = target: factor D purified from human serum (human) (UniProt P00746); assay: cell-based or functional assay
[3] = target: factor D purified from human serum (human) (UniProt P00746); assay: SPR (BIAcore), factor D amine-coupled to the chip, MAb 166-32 as analyte
[4] = target: factor D purified from human serum (human) (UniProt P00746); assay: SPR (BIAcore), MAb captured by rabbit anti-mouse IgG, factor D as analyte

UniProt P00746, sequence (P00746 26-253 N180D): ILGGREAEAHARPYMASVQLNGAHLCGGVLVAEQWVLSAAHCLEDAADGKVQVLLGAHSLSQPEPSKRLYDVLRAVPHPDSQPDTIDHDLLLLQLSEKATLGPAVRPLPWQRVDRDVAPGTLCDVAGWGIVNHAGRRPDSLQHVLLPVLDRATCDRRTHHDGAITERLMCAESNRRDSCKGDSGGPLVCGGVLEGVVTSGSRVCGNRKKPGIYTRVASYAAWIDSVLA

Kd [3]: 0.16 nM | koff [3]: 7.6e-05 s⁻¹ | kon [3]: 460000 M⁻¹ s⁻¹ | Kd [4]: < 0.1 nM | koff [4]: 0.00011 s⁻¹ | kon [4]: > 1e+06 M⁻¹ s⁻¹
Substance: MAb 166-32 (antibody)
neutralization of factor D in hemolytic assays [1]: > 10 | alternative complement activity of plasma from extracorporeal circuits (hemolysis of rabbit red blood cells) (molar ratio (MAb: factor D)) [2]: 1.5 | factor D dependent hemolysis of unsensitized rabbit RBCs (factor D depleted human serum with purified factor D added) [2]: 0.3 µg/mL | factor D dependent hemolysis of unsensitized rabbit RBCs: molar ratio for inhibition (molar ratio (MAb 166-32 to factor D)) [2]: 0.5
